Results: article PMC8011160

Assays:
[1] = molecular target: collagen Type I (purified from rat tail) (rat), P02454; assay: ELISA; host protein coated on microtiter wells; recombinant protein varied from 0 to 2 μM; absorbance with BSA subtracted; apparent Kd from the half-maximal binding concentration (GraphPad Prism 6); conditions: remark: other sources report otherwise
[2] = molecular target: T1, fibrinogen (purified from human plasma) (human), P02671; assay: as above; conditions: remark: other sources report otherwise
T1 chain 1: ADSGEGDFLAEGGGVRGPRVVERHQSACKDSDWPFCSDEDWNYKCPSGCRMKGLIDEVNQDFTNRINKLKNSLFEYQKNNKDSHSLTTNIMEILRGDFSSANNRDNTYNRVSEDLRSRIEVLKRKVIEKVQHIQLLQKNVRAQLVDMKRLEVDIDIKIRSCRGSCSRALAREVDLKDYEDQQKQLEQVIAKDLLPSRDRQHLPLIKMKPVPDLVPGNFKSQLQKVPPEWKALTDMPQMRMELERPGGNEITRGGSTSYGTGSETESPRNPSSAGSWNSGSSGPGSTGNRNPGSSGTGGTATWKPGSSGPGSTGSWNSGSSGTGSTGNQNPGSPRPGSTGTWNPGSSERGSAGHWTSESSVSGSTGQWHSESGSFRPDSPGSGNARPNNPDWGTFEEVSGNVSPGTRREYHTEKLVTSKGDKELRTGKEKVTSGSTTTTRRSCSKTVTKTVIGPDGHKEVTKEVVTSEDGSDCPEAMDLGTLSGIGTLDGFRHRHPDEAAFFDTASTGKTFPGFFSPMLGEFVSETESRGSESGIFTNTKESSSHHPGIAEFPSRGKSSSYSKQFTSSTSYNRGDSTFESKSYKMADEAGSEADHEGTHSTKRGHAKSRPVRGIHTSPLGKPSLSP
T1 chain 2: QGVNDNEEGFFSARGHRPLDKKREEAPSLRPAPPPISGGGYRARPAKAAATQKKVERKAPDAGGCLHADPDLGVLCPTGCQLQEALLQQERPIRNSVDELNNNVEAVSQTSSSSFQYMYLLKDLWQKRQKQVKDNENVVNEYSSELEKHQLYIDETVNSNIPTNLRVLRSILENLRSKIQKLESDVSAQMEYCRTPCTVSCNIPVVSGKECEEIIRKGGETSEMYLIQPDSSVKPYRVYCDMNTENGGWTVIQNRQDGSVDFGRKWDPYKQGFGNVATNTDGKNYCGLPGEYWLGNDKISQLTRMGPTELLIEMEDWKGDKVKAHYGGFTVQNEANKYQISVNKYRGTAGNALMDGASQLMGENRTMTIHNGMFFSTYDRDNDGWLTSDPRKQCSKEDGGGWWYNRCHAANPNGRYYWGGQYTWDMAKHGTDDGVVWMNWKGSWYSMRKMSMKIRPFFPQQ
T1 chain 3: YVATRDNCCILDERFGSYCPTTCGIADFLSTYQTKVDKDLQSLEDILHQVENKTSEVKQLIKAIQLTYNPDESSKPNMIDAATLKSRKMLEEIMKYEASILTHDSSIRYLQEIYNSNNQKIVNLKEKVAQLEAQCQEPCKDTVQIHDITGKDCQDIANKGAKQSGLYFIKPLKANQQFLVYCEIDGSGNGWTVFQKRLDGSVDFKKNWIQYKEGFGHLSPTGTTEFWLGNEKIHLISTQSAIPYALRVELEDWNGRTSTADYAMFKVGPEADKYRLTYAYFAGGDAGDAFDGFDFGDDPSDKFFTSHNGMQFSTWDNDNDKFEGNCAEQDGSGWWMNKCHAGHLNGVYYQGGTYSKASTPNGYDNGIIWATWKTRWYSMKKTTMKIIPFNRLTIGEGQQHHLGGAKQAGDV

B1: GroEL protein of Leptospira interrogans (recombinant, His-tagged), P61438 1-546 (natural protein)
chain: MAKDIEYNETARRKLLEGVNKLANAVKVTLGPKGRNVVIDKKFGAPTITKDGVTVAKEIELEDPLENMGAQMVKEVSTKTNDVAGDGTTTATILAQSIINEGLKNVTAGANPMSLKKGIDKAVTAAVESIQKRAVKIENKKDIANVASISANNDNTIGNLIADAMDKVGKDGVITVEEAKSIETTLDVVEGMQFDRGYISPYMVTDAESMVATLNDPFILIYDKKISSMKDLIHILEKVAQAGKPLVIISEEVEGEALATIVVNTLRKTISCVAVKAPGFGDRRKSMLEDIAILTGGQVISEDLGMKLENTTLQMLGRANKVTVDKENTTIIEGKGQTKEIQGRIGQIKKQIEDTTSEYDREKLQERLAKLAGGVAVIHVGAATEVEMKEKKARVEDALSATRAAVEEGIVPGGGLTLLKAQEAVGSLKLDGDEATGAKIIFRALEEPIRMITSNAGLEGSVIVEHAKAKKGNEGFNALTMVWEDMIQAGVVDPAKVVRSALQNAASIGSMILTTEVTITDKPDKDAPNPMAGMGGGGMGGMGGMM
Work on B1 yielded a Kd [1] of 11 nM and a Kd [2] of 23 nM.
